# Paper PMC10746276, “CsrA coordinates the expression of ribosome hibernation and anti-σ factor proteins”
# B1: yqjC leader WT (ssRNA)
# RNA: GGGCGGUGGUUAACACUACCGCUUCGUUGUCUGGACAAUCGUUCCUUUGUAAUAGGUCCGAAUCACAAUGGAAGGUUCAAGAAUGAAAUACCGCAUCGCUUUAGCUGUU
# B2: yqjC leader GGA1 mutant (GGA to AAA) (ssRNA)
# RNA: GGGCGGUGGUUAACACUACCGCUUCGUUGUCUAAACAAUCGUUCCUUUGUAAUAGGUCCGAAUCACAAUGGAAGGUUCAAGAAUGAAAUACCGCAUCGCUUUAGCUGUU
# How the values were obtained:
# [1] = molecular target: T1, CsrA-His6 (Escherichia coli, UniProt P69913 1-61); test: EMSA; Hill coefficient 4.5; EMSA: 0.1 nM RNA, 10 mM MgCl2, 100 mM KCl, 32.5 ng yeast RNA, 20 mM DTT, 7.5% glycerol, 4 U SUPERasin, 30 min 37 C (pH not given); footprint: 2 nM RNA, 10 mM Tris-HCl pH 7.5, 10 mM MgCl2, 100 mM KCl, yeast RNA, acetylated BSA, 37 C; details: protein: recombinant; tags: His6 (C-terminal by name); chain copies: 2; label: 5'-32P; hairpin (mFold)
# T1 sequence (P69913 whole entry): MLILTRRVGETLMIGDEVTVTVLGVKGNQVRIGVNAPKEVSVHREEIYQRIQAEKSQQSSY
# [2] = molecular target: T1, CsrA-His6; test: EMSA; EMSA: 0.1 nM RNA, 10 mM MgCl2, 100 mM KCl, 32.5 ng yeast RNA, 20 mM DTT, 7.5% glycerol, 4 U SUPERasin, 30 min 37 C (pH not given); footprint: 2 nM RNA, 10 mM Tris-HCl pH 7.5, 10 mM MgCl2, 100 mM KCl, yeast RNA, acetylated BSA, 37 C; details: protein: recombinant; tags: His6 (C-terminal by name); chain copies: 2; label: 5'-32P
# [3] = molecular target: T1, CsrA-His6; test: EMSA; side-by-side with A(-15)G; differs from 95 nM in Fig. 6, RNA may differ; EMSA: 0.1 nM RNA, 10 mM MgCl2, 100 mM KCl, 32.5 ng yeast RNA, 20 mM DTT, 7.5% glycerol, 4 U SUPERasin, 30 min 37 C (pH not given); footprint: 2 nM RNA, 10 mM Tris-HCl pH 7.5, 10 mM MgCl2, 100 mM KCl, yeast RNA, acetylated BSA, 37 C; details: protein: recombinant; tags: His6 (C-terminal by name); chain copies: 2; label: 5'-32P
# [4] = molecular target: T1, CsrA-His6; test: EMSA; no effect on affinity vs WT; EMSA: 0.1 nM RNA, 10 mM MgCl2, 100 mM KCl, 32.5 ng yeast RNA, 20 mM DTT, 7.5% glycerol, 4 U SUPERasin, 30 min 37 C (pH not given); footprint: 2 nM RNA, 10 mM Tris-HCl pH 7.5, 10 mM MgCl2, 100 mM KCl, yeast RNA, acetylated BSA, 37 C; details: protein: recombinant; tags: His6 (C-terminal by name); chain copies: 2; label: 5'-32P
binder,measurement,setting,value
GCGCAGGAAGAGCUGAAAAAGCUGGAAGCGC (structured_RNA) [yqjD BS2-BS3 fragment WT],Kd,[1],89 ± 6 nM
GGGUUUUACGCAAAUCCAGAACGAGAAUGUCUAAUCAG (ssRNA) [elaB leader GGA to CCA],binding result,[2],no binding
GGGUUUUACGCAAAUGGAGAACGAGAAUGUCUAAUCAG (ssRNA) [elaB leader WT],Kd,[2],20 ± 8 nM
B1,Kd,[2],95 ± 7 nM
same,Kd,[3],15 ± 9 nM
B2,binding result,[4],binds
